What was measured:
Assay in all cases: cell-based or functional assay
[1] = target: HIV-1 92BR020 Env on pseudotyped virus (HIV-1 isolate 92BR020)
[2] = target: HIV-1 92RW020 Env (HIV-1 92RW020)
[3] = target: HIV-1 Env of isolate CAP45 (clade C pseudovirus) (HIV-1)
[4] = target: aMLV envelope on pseudotyped virus (negative control) (aMLV)
[5] = target: HIV-1 Env of isolate MGRM-Chronic-B-002 (HIV-1)
[6] = target: HIV-1 Env of pseudovirus MGRM-A-007 (subtype A) (HIV-1)
[7] = target: HIV-1 Env of isolate MG RM-D-014 (clade D), on pseudovirus (HIV-1)
[8] = target: HIV-1 Env of isolate MGRM-F1-016 (clade F), on pseudovirus (HIV-1)
[9] = target: HIV-1 Env of isolate MGRM-Chronic-B-012 (HIV-1)
[10] = target: HIV-1 Env of isolate MG RM-D-024 (clade D), on pseudovirus (HIV-1)
[11] = target: HIV-1 Env of pseudovirus 92WR026 (subtype A) (HIV-1)
[12] = target: HIV-1 Env of isolate MG RM-D-003 (clade D), on pseudovirus (HIV-1)
[13] = target: HIV-1 Env of pseudovirus 94UG103 (subtype A) (HIV-1)
[14] = target: HIV-1 Env of isolate MG RM-D-002 (clade D), on pseudovirus (HIV-1)
[15] = target: HIV-1 Env of isolate MGRM-Chronic-B-004 (HIV-1)
[16] = target: HIV-1 Env of pseudovirus 92RW008 (subtype A) (HIV-1)
[17] = target: HIV-1 Env of isolate MGRM-F1-010 (clade F), on pseudovirus (HIV-1)
[18] = target: HIV-1 Env of isolate MGRM-C-028 (clade C pseudovirus) (HIV-1)
[19] = target: HIV-1 Env of isolate APV17 (HIV-1)
[20] = target: HIV-1 Env of isolate MG RM-D-013 (clade D), on pseudovirus (HIV-1)
[21] = target: HIV-1 Env of isolate MGRM-F1-013 (clade F), on pseudovirus (HIV-1)
[22] = target: HIV-1 Env of isolate MGRM-F1-004 (clade F), on pseudovirus (HIV-1)
[23] = target: HIV-1 Env of pseudovirus 92WR021 (subtype A) (HIV-1)
[24] = target: HIV-1 Env of isolate MGRM-Chronic-B-010 (HIV-1)
[25] = target: HIV-1 Env of isolate MG RM-D-004 (clade D), on pseudovirus (HIV-1)
[26] = target: HIV-1 Env of isolate 92UG046 (clade D), on pseudovirus (HIV-1)
[27] = target: HIV-1 Env of isolate MG RM-D-008 (clade D), on pseudovirus (HIV-1)
[28] = target: HIV-1 Env of isolate MGRM-Chronic-B-023 (HIV-1)
[29] = target: HIV-1 Env of isolate MG RM-D-019 (clade D), on pseudovirus (HIV-1)
[30] = target: HIV-1 Env of isolate MGRM-F1-020 (clade F pseudovirus) (HIV-1)
[31] = target: HIV-1 Env of isolate MG RM-D-016 (clade D), on pseudovirus (HIV-1)
[32] = target: HIV-1 Env of isolate MGRM-Chronic-B-008 (HIV-1)
[33] = target: HIV-1 Env of isolate MGRM-C-026 (clade C pseudovirus) (HIV-1)
[34] = target: HIV-1 MGRM-C-026 envelope glycoprotein (Env) on pseudovirus (HIV-1)
[35] = target: HIV-1 JRFL envelope glycoprotein (Env) on pseudovirus (HIV-1)
[36] = target: HIV-1 APV6 envelope glycoprotein (Env) on pseudovirus (HIV-1)
[37] = target: HIV-1 APV17 envelope glycoprotein (Env) on pseudovirus (HIV-1)
[38] = target: HIV-1 MGRM-C-028 envelope glycoprotein (Env) on pseudovirus (HIV-1)
[39] = target: HIV-1 MGRM-D-018 envelope glycoprotein (Env) on pseudovirus (HIV-1)
[40] = target: HIV-1 Env of pseudovirus MGRM-A-008 (subtype A) (HIV-1)

1443_C16 (PG16) (TCN-116) (antibody), sequence (VH): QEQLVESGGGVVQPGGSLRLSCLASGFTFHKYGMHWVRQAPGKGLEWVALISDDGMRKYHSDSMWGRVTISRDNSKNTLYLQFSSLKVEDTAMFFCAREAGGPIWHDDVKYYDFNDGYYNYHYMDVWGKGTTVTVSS
1443_C16 (PG16) (TCN-116) (antibody), sequence (VL): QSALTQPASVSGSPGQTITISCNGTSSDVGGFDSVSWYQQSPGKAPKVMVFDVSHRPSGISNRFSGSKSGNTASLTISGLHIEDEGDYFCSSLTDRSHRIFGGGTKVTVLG

1443_C16 (PG16) (TCN-116) (antibody)
Neutralizing Antibody Assay: IC50; Virus/Ab Incubation 1 hour [1]: > 50 µg/mL | Neutralizing Antibody Assay: IC50; Virus/Ab Incubation 18 hour [1]: > 50 µg/mL | IC50 (ug/ml), pseudovirus neutralization, TZM-bl assay [2]: 0.09 µg/mL | IC50 (neutralization, TZM-bl pseudovirus assay) [3]: < 0.01 µg/mL | Neutralizing Antibody Assay: IC50; Virus/Ab Incubation 1 hour [4]: > 50 µg/mL | Neutralizing Antibody Assay: IC50; Virus/Ab Incubation 18 hour [4]: > 50 µg/mL

1495_C14 (PGC14) (antibody)
Neutralizing Antibody Assay: IC50; Virus/Ab Incubation 1 hour [1]: 1.17 µg/mL | Neutralizing Antibody Assay: IC50; Virus/Ab Incubation 18 hour [1]: 0.244 µg/mL | Neutralizing Antibody Assay: IC50; Virus/Ab Incubation 1 hour [4]: > 50 µg/mL | Neutralizing Antibody Assay: IC50; Virus/Ab Incubation 18 hour [4]: > 50 µg/mL

1496_C09 (PG9) (TCN-109) (antibody)
IC50 (µg/mL), pseudovirus neutralization [5]: 3.44 µg/mL | IC50, pseudovirus neutralization [6]: 1.06 µg/mL | IC50 (µg/mL), pseudovirus neutralization [7]: 0.023 µg/mL | IC50 (µg/mL), pseudovirus neutralization [8]: 0.518 µg/mL | IC50 (µg/mL), pseudovirus neutralization [9]: 0.2 µg/mL | IC50 (µg/mL), pseudovirus neutralization [10]: 0.038 µg/mL | IC50, pseudovirus neutralization [11]: 0.164 µg/mL | IC50 (ug/ml), pseudovirus neutralization, TZM-bl assay [2]: 0.1 µg/mL | IC50 (µg/mL), pseudovirus neutralization [12]: 0.033 µg/mL | IC50, pseudovirus neutralization [13]: 0.34 µg/mL | IC50 (µg/mL), pseudovirus neutralization [14]: 0.021 µg/mL | IC50 (µg/mL), pseudovirus neutralization [15]: 0.533 µg/mL | IC50, pseudovirus neutralization [16]: 6 ng/mL | IC50 (µg/mL), pseudovirus neutralization [17]: 0.012 µg/mL | IC50 (µg/mL), pseudovirus neutralization [18]: 0.067 µg/mL | IC50 (µg/mL), pseudovirus neutralization [19]: 34.8 µg/mL | IC50 (µg/mL), pseudovirus neutralization [20]: 0.021 µg/mL | IC50 (µg/mL), pseudovirus neutralization [21]: 1.25 µg/mL | IC50 (µg/mL), pseudovirus neutralization [22]: 0.175 µg/mL | IC50, pseudovirus neutralization [23]: 0.027 µg/mL | IC50 (µg/mL), pseudovirus neutralization [24]: 0.004 µg/mL | IC50 (µg/mL), pseudovirus neutralization [25]: 0.06 µg/mL | IC50 (µg/mL), pseudovirus neutralization [26]: 1.86 µg/mL | IC50 (µg/mL), pseudovirus neutralization [27]: 11.5 µg/mL | IC50 (µg/mL), pseudovirus neutralization [28]: 0.027 µg/mL | IC50 (µg/mL), pseudovirus neutralization [29]: 0.038 µg/mL | IC50 (µg/mL), pseudovirus neutralization [30]: 6.4 µg/mL | IC50 (µg/mL), pseudovirus neutralization [31]: 0.098 µg/mL | IC50 (µg/mL), pseudovirus neutralization [32]: 8.78 µg/mL | IC50 (µg/mL), pseudovirus neutralization [33]: 0.06 µg/mL

4858_P08 (PGT-123) (antibody)
neutralization IC50 [34]: 3.1 ng/mL | neutralization IC80 [34]: 9.4 ng/mL | neutralization IC90 [34]: 0.0183 µg/mL | neutralization IC95 [34]: 0.0338 µg/mL | neutralization IC50 [35]: 0.0283 µg/mL | neutralization IC80 [35]: 0.0904 µg/mL | neutralization IC90 [35]: 0.178 µg/mL | neutralization IC95 [35]: 0.332 µg/mL | neutralization IC50 [36]: 0.0328 µg/mL | neutralization IC80 [36]: 0.145 µg/mL | neutralization IC90 [36]: 0.339 µg/mL | neutralization IC95 [36]: 0.726 µg/mL | neutralization IC50 [37]: 0.18 µg/mL | neutralization IC80 [37]: 0.539 µg/mL | neutralization IC90 [37]: 1.01 µg/mL | neutralization IC95 [37]: 1.75 µg/mL | neutralization IC50 [38]: 0.443 µg/mL | neutralization IC80 [38]: 2.8 µg/mL | neutralization IC90 [38]: 7.11 µg/mL | neutralization IC95 [38]: > 10 µg/mL | neutralization IC50 [39]: 4.7 ng/mL | neutralization IC80 [39]: 0.0175 µg/mL | neutralization IC90 [39]: 0.0381 µg/mL | neutralization IC95 [39]: 0.0791 µg/mL

5141_B17 (PGT-126) (antibody)
IC50, pseudovirus neutralization [34]: 7.6 ng/mL | IC80 (pseudovirus neutralization) [34]: 0.0345 µg/mL | IC90 (pseudovirus neutralization) [34]: 0.0831 µg/mL | IC95 (pseudovirus neutralization) [34]: 0.185 µg/mL | IC50, pseudovirus neutralization [35]: 0.014 µg/mL | IC80 (pseudovirus neutralization) [35]: 0.0454 µg/mL | IC90 (pseudovirus neutralization) [35]: 0.09 µg/mL | IC95 (pseudovirus neutralization) [35]: 0.169 µg/mL | IC50, pseudovirus neutralization [36]: 0.0249 µg/mL | IC80 (pseudovirus neutralization) [36]: 0.0681 µg/mL | IC90 (pseudovirus neutralization) [36]: 0.123 µg/mL | IC95 (pseudovirus neutralization) [36]: 0.213 µg/mL | IC50, pseudovirus neutralization [37]: 0.501 µg/mL | IC80 (pseudovirus neutralization) [37]: 4.43 µg/mL | IC90 (pseudovirus neutralization) [37]: > 10 µg/mL | IC95 (pseudovirus neutralization) [37]: > 10 µg/mL | IC50, pseudovirus neutralization [38]: 0.283 µg/mL | IC80 (pseudovirus neutralization) [38]: 2.62 µg/mL | IC90 (pseudovirus neutralization) [38]: > 10 µg/mL | IC95 (pseudovirus neutralization) [38]: > 10 µg/mL | IC50, pseudovirus neutralization [39]: 9.3 ng/mL | IC80 (pseudovirus neutralization) [39]: 0.0391 µg/mL | IC90 (pseudovirus neutralization) [39]: 0.0918 µg/mL | IC95 (pseudovirus neutralization) [39]: 0.205 µg/mL

PGV04 (antibody)
IC50, pseudovirus neutralization [40]: 0.555 µg/mL | IC50 (µg/mL), pseudovirus neutralization [5]: 0.142 µg/mL | IC50, pseudovirus neutralization [6]: 7.21 µg/mL | IC50 (µg/mL), pseudovirus neutralization [7]: 0.194 µg/mL | IC50 (µg/mL), pseudovirus neutralization [8]: 0.268 µg/mL | IC50 (µg/mL), pseudovirus neutralization [9]: > 50 µg/mL | IC50 (µg/mL), pseudovirus neutralization [10]: > 50 µg/mL | IC50, pseudovirus neutralization [11]: 0.14 µg/mL | IC50 (µg/mL), pseudovirus neutralization [12]: > 50 µg/mL | IC50, pseudovirus neutralization [13]: 0.202 µg/mL | IC50 (µg/mL), pseudovirus neutralization [14]: 0.322 µg/mL | IC50 (µg/mL), pseudovirus neutralization [15]: 0.047 µg/mL | IC50, pseudovirus neutralization [16]: 14 ng/mL | IC50 (µg/mL), pseudovirus neutralization [17]: 0.184 µg/mL | IC50 (µg/mL), pseudovirus neutralization [18]: 0.149 µg/mL | IC50 (µg/mL), pseudovirus neutralization [19]: 0.309 µg/mL | IC50 (µg/mL), pseudovirus neutralization [20]: 0.088 µg/mL | IC50 (µg/mL), pseudovirus neutralization [21]: 0.084 µg/mL | IC50 (µg/mL), pseudovirus neutralization [22]: 0.58 µg/mL | IC50, pseudovirus neutralization [23]: 0.038 µg/mL | IC50 (µg/mL), pseudovirus neutralization [24]: 0.744 µg/mL | IC50 (µg/mL), pseudovirus neutralization [25]: 43.2 µg/mL | IC50 (µg/mL), pseudovirus neutralization [26]: 22.4 µg/mL | IC50 (µg/mL), pseudovirus neutralization [27]: 3.56 µg/mL | IC50 (µg/mL), pseudovirus neutralization [28]: 0.139 µg/mL | IC50 (µg/mL), pseudovirus neutralization [29]: 0.35 µg/mL | IC50 (µg/mL), pseudovirus neutralization [30]: 5.99 µg/mL | IC50 (µg/mL), pseudovirus neutralization [31]: 0.201 µg/mL | IC50 (µg/mL), pseudovirus neutralization [32]: 0.166 µg/mL | IC50 (µg/mL), pseudovirus neutralization [33]: 0.303 µg/mL
